B1: TPR t1 (parent)
chain: GACCAAUCUGCCCUCAGAGCUCGAGAACAUCUUCGGAUGCAGAGGAGGCAGGCUUCGGUGGCGCGAUAGCGCCAACGUCCUCAACCUCCAAUGCAUCCCACCACAUGAUGAUGCCUGAAGAGCCUUGGUUUUUUG

Variants of: B1
Assay: polymerase ribozyme fitness, log enrichment relative to wild type (log ratio); higher = more active; in vitro selection for triplet polymerase activity
How it was run: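 Mutant libraries were PCR-built and transcribed for each subunit of a heterodimeric triplet polymerase ribozyme and selected for one round in triplicate at −7 °C, frozen, before gel excision of extended constructs and streptavidin-bead capture. Input and output libraries were Illumina-sequenced, keeping genotypes with ≥10 input reads and ≥1 read per output. Fitness is a logarithmic ratio of genotype to wild-type enrichment, in base 2, using inverse-variance-weighted replicate averages.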

Variant | polymerase ribozyme fitness (log ratio)
GAACAAUCUGCCUUCAGAGCUCGAGAACAUCUUCGGAUGCAGAGGAGGCAGGCUUCGGUGGCGCGAUAGCGCUAACGUCCUCAACCUCCAAUGCAUCCCACCACAUGAUGAUGCCUGAAGAGCCUUGGUUUUUUG [C3A C13U C73U] | -1.44
GAACAAUCUGCCCUCAGAGCUCGAGAACUUCUUCGGAUGCAGAGGAGGCAGGCUUCGGUGACGCGAUAGCGCCAACGUCCUCAACCUCCAAUGCAUCCCACCACAUGAUGAUGCCUGAAGAGCCUUGGUCUUUUG [C3A A29U G61A U130C] | -1.93
GAACAAUCUGCCCUCAGAGCUCGAGAACAUCUUCGGUUGCAGAGGAGGCAGGCUUCGGUGGCGCGAUAGCGCCAACGUCCUCAACCUCCAAUGCAUCCCACCACAUGAUGAUGCCUGAAGAGCCUUGGUUUUUUG [C3A A37U] | -2.19
GAACAAUCUGCCCUCAGAGCUCGAGAACAUCUUCGGAUGCCGAGGAGGCAGGCUUCGGUGGCGCGAUAGCGCCAACGUCUUCAACCUCCAAUGCAUCCCACCACAUGAUGAUGCCUGAAGAGACUUGGUUUUUUG [C3A A41C C80U C123A] | -1.77
GAACAAUCUGGCCUCAGAGCUCGAGAACAUCUUCGGAUGCAGAGGAGGCAGGCUUGGGUGGCGCGAUAGCGCCAACGUCCUUAACCUCCAAUGCAUCCCACCACAUGAUGAUGCUUAAAGAGCCUUGGUUUUUUG [C3A C11G C56G C82U C115U G117A] | -1.87
GUCCAAUCUGCCCUCAGAGCUCGAGAACAUCUUCGGAUGCAGAGGAGGCAGGCUUCGGUGGCGCGAUAGCGCCAACGUCCUCAACCUCCAAUGCAUCCCACCACAUGAUGAUGCCUGAAGAGCCUUGGUCUUUUG [A2U U130C] | -0.66
GAACAAUCUGCCCUCAGAGCUCGAGAACAUCUUCGGAUGCAGAGGAGGCUGGCUUCGGUGGCGCGAUAGCGCCAACGUCUUCAACCUCCAAUGCAUCCCACCACAUGAUGAUGCCUGAAUAGCCUUGGUUUUUUG [C3A A50U C80U G120U] | -4.64
GAACAAUCUGCCCUCAGAGCUCGAGAACAUCUUCGGAUGCAGAGGCGGCAGGAUUCGGUGGCGCGAUAGCGUCAACGUCCUCAACCUCCAAUGCAUCCCACCACAUGAUGAUGCCUGAAGAGCCUUGGUUUUUUG [C3A A46C C53A C72U] | -1.88
GAACACUCUGCACUCAGAGCUCGAGAACAUCUUCGGAUGCAGAGGAGGCGGGCUUGGGUGGCGCGAUAGCGCCAACGUCCUCAACCUCCAAUGCAUCCCACCACAUGAUGAUGCCUGAAGAGCCUUGGUUUUUUG [C3A A6C C12A A50G C56G] | -3.05
GAACAAUCUGCCCUCAGAGCUCGAGACCAUCUUCGGAUGCAGAGAAGGCAGGAUUCGGUGGCGCGAUAGCGCCAACGUCCUCAACCUCCAAUGCAUCCCACCACAUGAUGAUGCCUGAAGAGUCUUGGUUUUUUG [C3A A27C G45A C53A C123U] | -4.25
GAACAAUCUGCCCUCAGAGCUCGAGAACAUCUUCGGUUGCAGAGGAGGCAGGCUUCGGUGGCGCGAUAGCGCCAACGUCCUUAACCUCCAAUGCAUCCCACCACAUGAUGACGCCUGAAGAGCCUUGGUUUUUUG [C3A A37U C82U U112C] | -0.239
GAAGAAACUGCCCUCAGAGCACGAGAACAUCUUCGGAUGUAGAGGAUGCAGGCUUCGGUGGCGCGAUAGCGCCAACGUCCUCAACCUCCAAUGCAUCCCACCACAUGAUGAUGUCUGAAGAGCCUUGGUUUUUUG [C3A C4G U7A U21A C40U G47U C114U] | -3.96
GAACUAUCUGCCCUCAGAGCUCGAGAACAUCUUCGGAUGCAGAGGAGGCAGGCUUCGGUCGCGCGAUAGCGCCAACGUCCUCAACCUCCAUUGCAUCCCACCACAUGAUGAUGCCUGAAGAGCCUUAGUUUUUUG [C3A A5U G60C A91U G127A] | -2.45
GAACAAUCUGCCCUCAGAGCUCGAGAACAUCUUCGGAUGCAGAGGAGGCAGGCUUCGGUGGCGCGAUAGCGCCAGCGUCCUCAACCUCCAAUGCAUCCCACCACAUGAUGGUGCCUGGAGAGCCUUGGCUUUUUG [C3A A75G A111G A118G U129C] | -1.7
GUCCAAUCUGCCCUCAGAGCUCGAGAACAUCUUCGGAUGCAGAGGAGGCAGGCUUCGGUGGCGCGAUAGCGCCAACGUCCUCAACCUCCAAUGCAUCCCACCACAAGAUGAUGCCUGAAGAGCCUUGGCUUUUUG [A2U U106A U129C] | -1.74
GAACAAUCUGCCCUCAGAGCUCGAGAACAUCUUCGGAUGCAGAGGAGGCAGGCUUCGGUGGCGCGAUAGCGCCAACGUCCUCAACCUCCAAUGCAUCCCACCACAUGAUGCUGCCUGAAGAGCCUUGGUUUUUUG [C3A A111C] | -1.17
GAACAAUUUGCCCUCAGAGCUCGAGAACAUCUUCGGAUGCAGAGGUGGCAGGCUUCGGUGGCCCGAUAGCGCCAACGUCCUCAACCUCCAAUGCAUCCCACCACAUGAUGAUGCCUGAAGAGCCUUGGUCUUUUG [C3A C8U A46U G63C U130C] | -1.24
GAAAAAUCUGCCCUCAGAGCUCGAGAACAUCUUCGGAUGUAGAGGAGGCAGGCUUCGGUGGCGCGAUAGCGCCAACGUCCUCAACCUCCAAUGCAUCCCACCAAAUGAUGAGGCCUGAAGAGCCUUGGUUUUUUG [C3A C4A C40U C104A U112G] | -3.41
GAACAAUCUGGCCUCAGAGCUCGAGAACAUCUUCGGAUGCAGAGGAGGCAGGCUUCGGUGGCGCGAUAGCGCCAACGUCCUCAACCUCCAAUGCAUCCCACCACAUGAUGAUGCCUGAAGAGCCUUGGUUUUUUG [C3A C11G] | -1.08
GAACAAUCUGCCCUAAGAGCUCGAGAACAUCUUCGGAUGCUGAGGAGGCAGGCUUCGCUGGCGCGAUAGCUCCAACGUCCUCAACCUCCAAGGCAUCCCACCACAUGAUGAUGGCUGAAGAGCCUUGGUUUUUUG [C3A C15A A41U G58C G71U U92G C114G] | -5.03
GAACAAUCUGCCCUCAGAGCUCGAGAACAUCUUCGGAUGCAGGGGAGGCAGGCUUCGGUGGCGCGAUAGCGCCAACGUCCUCAACCUCCAAUGGAUCCCACCACAUGAUGAUGUCUGAAGAGCCUUGGUUUUUUG [C3A A43G C94G C114U] | -3.66

From the RNAGym collection of RNA variant scans (doi:10.1073/pnas.2313332121)
